Assay results published in patent publication US20060142171A1, “Novel alkaline protease” (priority 2003, published 2006).
Values joined by “and” are separate entries in the source; they are usually repeats but may differ in a detail not shown here. Equal entries are not always repeated.

Experiments:
[1] = tested on: casein; assay: Residual protease activity after incubation (pH, temperature, detergent components); type: biochemical; conditions: for Enzyme activity after incubation: 90 min at 40° C.; for Residual activity (% of original activity): 1 h at 50° C.
Description: The effect of pH on enzyme stability was studied by incubating the enzyme in different buffers of varying pH values at 50° C. for 1 h and then measuring the residual activity using standard assay procedure. AL protease was very stable in a broad pH range, maintaining over 90% of its original activity between pH 6 and 11, and more than 70% activity at pH 12 (FIG. 8A).
The effect of temperature on activity of the two proteases was determined by assaying enzyme activity at different temperatures in glycine-NaOH buffer, pH 10, while the thermal stability was determined by incubating the enzymes at different temperatures followed by measuring the residual activity under standard conditions. These measurements were done both in the presence and absence of 5 mM Ca^2+. […] Its optimum temperature for activity was at 70° C. (FIG. 9A), but when incubated at that temperature the enzyme was inactivated within 1 h (FIG. 10A). […] At temperature values above 50° C. Ca^2+ was absolutely required for the thermal stability of AL-89 protease (FIG. 10B).
Assay of protease activity was performed according to Ferrero et al. with some modifications. One millilitre of the reaction mixture containing 1% casein in 50 mM glycine-NaOH buffer, pH 10.0 and an appropriate amount of enzyme was incubated at 50° C. for 20 min after which the reaction was terminated by addition of 0.5 ml of trichloroacetic acid and centrifuged. 2.5 ml sodium carbonate was added to 0.5 ml supernatant followed by 0.5 ml of 1 M Folin-Ciocalteau reagent. The reaction mixture was allowed to stand for 30 min at room temperature before measuring the absorbance at 660 nm. One unit of protease activity was defined as the amount of enzyme, which released 1 μg tyrosine per min under standard assay conditions.
Effect of oxidation by H2O2 on AL protease stability was determined by residual activity measurements because of the temperature-induced decomposition of the peroxide in the calorimeter. […] Residual activity of the AL protease was also studied after incubation with sodium tripolyphosphate (STP; Sigma), sodium-Zeolite 4A (Prayon Tessenderlo, Belgium) and sodium citrate, respectively, representing some of the sequestering agents used in washing detergents. The enzyme activity was unchanged in the presence of 0.01-0.05% (w/v) Zeolite and STP, respectively, after 90 min at 40° C., and more than 80% of the original activity was retained in the presence of 0.5 M citrate (data not shown).

[2] = Isoelectric point; type: physicochemical
[3] = tested on: oxidized insulin B-chain; assay: Hydrolysis of oxidized insulin B-chain (MALDI-TOF); type: biochemical; conditions: 50° C., enzyme-substrate molar ratio of 1:100, pH 9
Description: To 0.38 mg of the oxidized insulin B-chain (Sigma) dissolved in 1 ml of 10 mM Tris-HCl buffer, pH 9 was added 10 μl (5.5 units) of the AL enzyme. The mixture was incubated at 50° C. for 15 min and 12 h, respectively, after which one drop (approx 40 μl) of 0.1% (v/v) TFA was added to inactivate the enzyme.
Identification of the cleavage products was performed on a matrix assisted laser desorption ionisation reflectron-type time-of-flight (MALDI-TOF) mass spectrometer (REFLEX, Bruker-Franzen Analytik; Bremen, Germany).
Cleavage of oxidized insulin B-chain by the AL protease at 50° C. was investigated using an enzyme-substrate molar ratio of 1:100. The reaction products were analyzed by MALDI-TOF mass spectrometry and identified from the mass of corresponding peptide pairs.

[4] = Differential scanning calorimetry; type: physicochemical
Description: The influence of different parameters including pH, calcium ions, EDTA, and detergent on thermal stability of the AL protease was investigated by differential scanning calorimetry (DSC). Comparative studies were also performed with Subtilisin Carlsberg. Thermal scans of AL protease (0.3 mg protein/ml) and subtilisin (2.5 mg protein/ml in the presence of 1 mM phenyl-methanesulfonyl fluoride (PMSF); Sigma) were performed by increasing temperature from 25° C. to 95° C. at a scan rate of 1° C. per min on a VP-DSC (MicroCal, Northampton, Mass.). The thermograms were corrected by subtracting the base line, obtained from a blank scan of the no-enzyme solution, and normalized for protein concentration. The unfolding transition of the AL protease was fitted to a two-state model. The Tm (temperature at which heat capacity change is a maximum), the calorimetric (or true) enthalpy ΔHcal (peak area), and van't Hoff (or apparent) enthalpy AHVH (calculated from the shape of thermogram) were calculated using the Origin software provided by MicroCal.

[5] = tested on: keratin azure; assay: Keratinolytic activity; type: biochemical; conditions: 10 mM glycine-NaOH, pH 10 at 50° C.
Description: The hydrolysis of keratin azure (Sigma) by the AL protease was determined according to the modified method of Santos et al. (1996). The reaction mixture (1.5 ml) comprising 0.5 ml of the enzyme solution and 10 mg keratin-azure in 10 mM glycine-NaOH buffer, pH 10 was incubated at 50° C. with constant shaking over 24 h period. The substrate was removed by centrifugation and liberation of the azo dye was measured at 595 nm. The reaction under similar conditions using heat-treated enzyme (by incubation in a boiling water bath for 15 min) was also run as a control. One unit (U) of keratinolytic activity was defined as an increase in the A595nm of 0.01 after 2 h.

[6] = pre-treated with chelex, or with 5 mM Ca^2+ or 10.0 mM EDTA, pH 10.0
[7] = untreated, 10 mM glycine-NaOH buffer, pH 10.0 (subtilisin with 1 mM PMSF)

B1: AL protease: thermostable alkaline, non-Ca2+-dependent serine protease isolated from Nesterenkonia sp. nov. strain AL (DSM 15380); SEQ. ID. NO. 1 (protein, listed as Nesterenkonia sp.)
chain: QNPADSPHIGKVFFSTNQGDFVCSANIVASANQSTVATAGHCLHDGNGGQFARNFVFAPAYDYGESEHGVWAAEELVTSAEWANRGDFEHDYAFAVLETKGGTTVQQQVGTASPIAFNQPRGQYYSAYGYPAAAPFNGQELHSCHGTATNDPMGSSTQGIPCNMTGGSSGGPWFLGQGTGGAQNSVNSYGYTFLPDVMFGPYFGSGAQQNYNYAST
In the case of B1, the “Enzyme activity after incubation” value ([1]; 0.01-0.05% (w/v) STP, data not shown) is reported as “unchanged”, the “Enzyme activity after incubation” value ([1]; 0.01-0.05% (w/v) Zeolite, data not shown) is reported as “unchanged” and the Original activity retained ([1]; 0.5 M citrate, data not shown) is reported as “more than 80%”. The “Activity, % of the original” value ([1]; 1 M peroxide (H2O2) at 40° C. for 90 min) was 60%, the “Effect on activity relative to 1 M peroxide” value ([1]; 1.6 M peroxide (H2O2), 40° C.) was “did not reduce the activity further” and the “Residual activity (% of original activity)” value ([1]; between pH 6 and 11) was “over 90%”. For the same molecule, the “Residual activity (% of original activity)” value ([1]; pH 12) was “more than 70%”, the Thermal stability ([1]; 1 h incubation at 65° C., presence or absence of Ca^2+) was “very good stability” and the Initial activity retained ([1]; 90 min incubation with 1% SDS at 40° C., pH 10.0) was “About 75%”. The Time to inactivation ([1]; incubated at 70° C.) was no more than 1 h, the Isoelectric point [2] was 4.2 and the “Initial cleavage site in oxidized insulin B-chain” value [3] was “Leu^15-Ty^16”. The “Decrease in Tm” value ([4]; 1% SDS vs untreated, pH 10.0) was 1.4 °C, the “Decrease in ΔHcal” value ([4]; 1% SDS vs untreated, pH 10.0) was 4 kcal/mol and the Tm ([4]; +0.1% SDS, pH 10.0) was 74.5 ± 0.03 °C. The ΔHcal ([4]; +0.1% SDS, pH 10.0) was 158 ± 0.7 kcal/mol, the Tm ([4]; +0.5% SDS, pH 10.0) was 74.1 ± 0.02 °C and the ΔHcal ([4]; +0.5% SDS, pH 10.0) was 158 ± 0.7 kcal/mol. The Tm ([4]; +1% SDS, pH 10.0) was 73.1 ± 0.02 °C, the ΔHcal ([4]; +1% SDS, pH 10.0) was 154 ± 0.6 kcal/mol and the “Mean ratio of ΔHcal to ΔHvH” value ([4]; at any given pH) was “close to unity (±0.05)”. For the same molecule, the Tm ([4]; pH 6) was 69.7 °C and 69.7 ± 0.02 °C, the ΔHcal ([4]; pH 6) was 141 kcal/mol and 141.0 ± 0.5 kcal/mol and the ΔHcal/ΔHvH ([4]; pH 6) was 0.94. For the same molecule, the ΔHvH ([4]; pH 6) was 150.0 ± 1.2 kcal/mol, the Tm ([4]; pH 7) was 73.5 ± 0.02 °C and the ΔHcal ([4]; pH 7) was 149.0 ± 0.5 kcal/mol. The ΔHcal/ΔHvH ([4]; pH 7) was 1.02, the ΔHvH ([4]; pH 7) was 147.0 ± 1.2 kcal/mol and the Melting temperature ([4]; pH 7-10) was “about 74 °C”. The Tm ([4]; pH 8) was 74.3 ± 0.02 °C, the ΔHcal ([4]; pH 8) was 158.0 ± 0.5 kcal/mol and the ΔHcal/ΔHvH ([4]; pH 8) was 0.93. The ΔHvH ([4]; pH 8) was 171.0 ± 1.2 kcal/mol, the Tm ([4]; pH 9) was 74.5 ± 0.02 °C and the ΔHcal ([4]; pH 9) was 157.5 ± 0.5 kcal/mol. The ΔHcal/ΔHvH ([4]; pH 9) was 1.02, the ΔHvH ([4]; pH 9) was 155.0 ± 1.3 kcal/mol and the Tm ([4]; pH 10) was 74.5 ± 0.03 °C. For the same molecule, the ΔHcal ([4]; pH 10) was 158 kcal/mol and 158.0 ± 0.5 kcal/mol, the ΔHcal/ΔHvH ([4]; pH 10) was 0.95 and the ΔHvH ([4]; pH 10) was 167.0 ± 1.7 kcal/mol. For the same molecule, the Tm ([4]; pH 11) was 72.0 °C and 72.6 ± 0.02 °C, the ΔHcal ([4]; pH 11) was 142 kcal/mol and 141.5 ± 0.5 kcal/mol and the ΔHcal/ΔHvH ([4]; pH 11) was 1.01. The ΔHvH ([4]; pH 11) was 141.0 ± 1.3 kcal/mol, the “Melting temperature, Tm” value ([4]; pH range of 8.0-10.0) was “around 74 °C” and the “Melting profile and denaturation temperature” value [4, 6] was “unaltered”. The ΔHcal [4, 6] was “around 158±0.5 kcal/mol”, the Tm [4, 7] was 74.5 ± 0.03 °C and the ΔHcal [4, 7] was 158 ± 0.6 kcal/mol. For the same molecule, the “Time of main hydrolysis of keratin-azure” value [5] was 2 to 12 h.
